Data from patent US20260001937A1, “NOVEL RECOMBINANT FIBRINOGEN VARIANTS FOR FIBRIN SEALANTS FOR SURGICAL WOUND CARE” (Julius-Maximilians-Universität Würzburg, priority 2022, published 2026).

Key:
[1] = target: T1, WT-Fbg (human fibrinogen, SigmaAldrich), P02671
T1 chain 1: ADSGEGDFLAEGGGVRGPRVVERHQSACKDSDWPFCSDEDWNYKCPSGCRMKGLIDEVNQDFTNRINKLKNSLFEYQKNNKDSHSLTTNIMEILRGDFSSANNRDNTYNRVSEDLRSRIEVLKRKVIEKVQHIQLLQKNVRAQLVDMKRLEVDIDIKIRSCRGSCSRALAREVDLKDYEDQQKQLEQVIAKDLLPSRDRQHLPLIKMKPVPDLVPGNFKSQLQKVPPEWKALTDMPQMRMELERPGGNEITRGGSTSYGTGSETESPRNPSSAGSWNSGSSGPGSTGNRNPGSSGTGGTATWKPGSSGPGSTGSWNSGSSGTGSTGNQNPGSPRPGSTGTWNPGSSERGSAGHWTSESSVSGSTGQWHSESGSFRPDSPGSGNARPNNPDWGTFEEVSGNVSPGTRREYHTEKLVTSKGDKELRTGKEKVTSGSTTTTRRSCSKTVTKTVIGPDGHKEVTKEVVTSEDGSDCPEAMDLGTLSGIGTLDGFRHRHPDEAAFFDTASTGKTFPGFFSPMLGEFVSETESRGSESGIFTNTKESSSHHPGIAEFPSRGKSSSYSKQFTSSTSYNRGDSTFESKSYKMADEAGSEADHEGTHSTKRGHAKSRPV
T1 chain 2: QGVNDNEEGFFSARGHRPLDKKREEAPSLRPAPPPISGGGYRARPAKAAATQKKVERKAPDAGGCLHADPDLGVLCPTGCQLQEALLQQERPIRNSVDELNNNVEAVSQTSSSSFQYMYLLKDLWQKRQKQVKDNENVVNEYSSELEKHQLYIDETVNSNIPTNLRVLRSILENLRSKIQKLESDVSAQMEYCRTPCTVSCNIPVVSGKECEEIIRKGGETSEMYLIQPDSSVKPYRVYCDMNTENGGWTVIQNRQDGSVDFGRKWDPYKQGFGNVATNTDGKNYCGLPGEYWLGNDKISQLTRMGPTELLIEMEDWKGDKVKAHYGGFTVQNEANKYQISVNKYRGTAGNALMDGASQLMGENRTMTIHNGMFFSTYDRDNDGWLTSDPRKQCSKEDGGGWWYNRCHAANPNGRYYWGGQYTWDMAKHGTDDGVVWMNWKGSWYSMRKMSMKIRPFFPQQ
T1 chain 3: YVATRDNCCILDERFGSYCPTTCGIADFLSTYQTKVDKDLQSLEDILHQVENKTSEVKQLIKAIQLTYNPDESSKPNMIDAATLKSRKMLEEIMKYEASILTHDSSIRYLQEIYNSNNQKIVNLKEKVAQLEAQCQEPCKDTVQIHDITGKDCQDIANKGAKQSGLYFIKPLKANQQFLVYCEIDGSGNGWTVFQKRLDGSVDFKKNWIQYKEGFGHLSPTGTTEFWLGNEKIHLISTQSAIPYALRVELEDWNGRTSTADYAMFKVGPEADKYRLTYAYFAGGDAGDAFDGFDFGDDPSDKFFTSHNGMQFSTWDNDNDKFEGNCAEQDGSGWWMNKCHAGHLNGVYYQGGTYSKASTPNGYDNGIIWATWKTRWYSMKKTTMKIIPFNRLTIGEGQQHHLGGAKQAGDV

[2] = target: T2, fibrin gel (Sigma Aldrich fibrinogen, 20 mg/mL, gelled with thrombin, factor XIIIa and CaCl2), P02671
T2 chain 1: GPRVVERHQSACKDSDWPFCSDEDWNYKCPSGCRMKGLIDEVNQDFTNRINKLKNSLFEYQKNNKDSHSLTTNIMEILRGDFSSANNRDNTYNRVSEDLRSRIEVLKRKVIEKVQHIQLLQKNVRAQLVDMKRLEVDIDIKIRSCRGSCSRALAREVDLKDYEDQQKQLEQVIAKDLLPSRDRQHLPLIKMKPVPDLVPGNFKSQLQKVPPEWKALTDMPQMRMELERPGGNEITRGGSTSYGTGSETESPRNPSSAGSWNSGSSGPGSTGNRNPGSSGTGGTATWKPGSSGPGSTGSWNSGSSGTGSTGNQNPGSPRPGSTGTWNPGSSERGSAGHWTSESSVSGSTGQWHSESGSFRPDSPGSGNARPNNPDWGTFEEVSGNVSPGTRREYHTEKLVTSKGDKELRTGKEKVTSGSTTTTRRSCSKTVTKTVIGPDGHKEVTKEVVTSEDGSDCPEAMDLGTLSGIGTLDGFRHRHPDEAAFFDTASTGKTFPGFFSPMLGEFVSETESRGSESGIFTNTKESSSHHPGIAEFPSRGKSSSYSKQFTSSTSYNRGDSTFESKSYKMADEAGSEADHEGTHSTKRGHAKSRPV
T2 chain 2: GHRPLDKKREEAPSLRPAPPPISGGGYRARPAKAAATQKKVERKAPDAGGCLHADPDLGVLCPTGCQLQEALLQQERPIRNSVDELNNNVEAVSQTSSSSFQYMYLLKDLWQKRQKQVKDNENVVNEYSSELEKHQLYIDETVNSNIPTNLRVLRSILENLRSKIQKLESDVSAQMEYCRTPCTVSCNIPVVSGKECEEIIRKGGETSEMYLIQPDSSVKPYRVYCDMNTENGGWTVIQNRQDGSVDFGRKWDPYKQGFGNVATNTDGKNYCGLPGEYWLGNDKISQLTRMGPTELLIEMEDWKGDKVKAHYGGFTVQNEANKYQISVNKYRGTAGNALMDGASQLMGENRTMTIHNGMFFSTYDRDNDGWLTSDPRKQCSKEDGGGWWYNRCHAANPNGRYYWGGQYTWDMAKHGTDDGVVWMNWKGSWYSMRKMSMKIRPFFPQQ
T2 chain 3: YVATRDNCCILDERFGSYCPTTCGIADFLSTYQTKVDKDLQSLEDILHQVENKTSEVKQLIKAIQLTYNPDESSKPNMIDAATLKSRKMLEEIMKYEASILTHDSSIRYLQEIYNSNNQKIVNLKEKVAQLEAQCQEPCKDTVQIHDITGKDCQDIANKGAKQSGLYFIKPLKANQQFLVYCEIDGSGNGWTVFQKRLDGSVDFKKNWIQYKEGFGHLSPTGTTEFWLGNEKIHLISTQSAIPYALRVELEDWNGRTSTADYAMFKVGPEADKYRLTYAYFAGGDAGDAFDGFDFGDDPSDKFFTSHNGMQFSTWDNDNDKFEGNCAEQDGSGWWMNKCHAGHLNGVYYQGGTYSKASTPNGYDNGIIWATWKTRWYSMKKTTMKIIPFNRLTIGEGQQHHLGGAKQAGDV

[3] = target: T3, synthetic gamma-chain peptide QLI(K)AIQ with K changed to serine
T3 chain: QLISAIQ

[4] = target: T4, synthetic gamma-chain peptide TYS(K)AST with K changed to serine
T4 chain: TYSSAST

B1: human plasmin (Merck) (protein)
chain: KVYLSECKTGNGKNYRGTMSKTKNGITCQKWSSTSPHRPRFSPATHPSEGLEENYCRNPDNDPQGPWCYTTDPEKRYDYCDILECEEECMHCSGENYDGKISKTMSGLECQAWDSQSPHAHGYIPSKFPNKNLKKNYCRNPDRELRPWCFTTDPNKRWELCDIPRCTTPPPSSGPTYQCLKGTGENYRGNVAVTVSGHTCQHWSAQTPHTHNRTPENFPCKNLDENYCRNPDGKRAPWCHTTNSQVRWEYCKIPSCDSSPVSTEQLAPTAPPELTPVVQDCYHGDGQSYRGTSSTTTTGKKCQSWSSMTPHRHQKTPENYPNAGLTMNYCRNPDADKGPWCFTTDPSVRWEYCNLKKCSGTEASVVAPPPVVLLPDVETPSEEDCMFGNGKGYRGKRATTVTGTPCQDWAAQEPHRHSIFTPETNPRAGLEKNYCRNPDGDVGGPWCYTTNPRKLYDYCDVPQCAAPSFDCGKPQVEPKKCPGRVVGGCVAHPHSWPWQVSLRTRFGMHFCGGTLISPEWVLTAAHCLEKSPRPSSYKVILGAHQEVNLEPHVQEIEVSRLFLEPTRKDIALLKLSSPAVITDKVIPACLPSPNYVVADRTECFITGWGETQGTFGAGLLKEAQLPVIENKVCNRYEFLNGRVQSTELCAGHLAGGTDSCQGDSGGPLVCFEKDKYILQGVTSWGLGCARPNKPGVYVRVSRFVTWIEGVMRNN
plasmin cleavage sites in the gamma-chain, high-resolution ESI-MS after 24 h digest in solution (0.5 U/mL plasmin) [1]: the 4 different cleavage sites K88, K111, K382, K399 in the WT could be detected
time course of plasmin cleavage sites in the alpha-chain of fibrin gels, high-resolution ESI-MS (0.005 mU/ml plasmin, up to 2 h) [2]: cleavage begins in the αC region of fibrinogen with the most prominent cleavage at positions 602 (K|MADE) and 620 (K|RGHA). Next, cleavage sites further down the αC region are cleaved ... (e. g. positions 527 (K|TFPG), 510 (R|HRHP), 225 (K|MKPV) and 238 (K|SQLQ)). At the same time, cleavage in the α
time course of plasmin cleavage sites in the beta-chain of fibrin gels, high-resolution ESI-MS [2]: cleavage of the β-chain starts at the N-terminus highlighted by positions 52 (K|REEA) and 72 (R|ARPA) ... Subsequently, the α-helical part between fragment D and E is cleaved by plasmin (e. g. 152 (K|DLWQ) and 160 (K|QVKD))
time course of plasmin cleavage sites in the gamma-chain of fibrin gels, high-resolution ESI-MS [2]: only one additional cleavage site was found in this time-resolved assay for γ-chain ... With only 5 cleavage sites detected during the early stages of plasmin degradation
plasmin cleavage efficiency of synthetic peptide, HPLC [3]: Peptide sequences including S instead of K showed a significant reduction in cleavage efficiency compared to the original sequences
plasmin cleavage efficiency of synthetic peptide, HPLC [4]: Peptide sequences including S instead of K showed a significant reduction in cleavage efficiency compared to the original sequences
